The target of one data set is KU70/80;DNA-PKcs;TRF2 (human;human;human, UniProt P12956;P13010;P78527;Q15554 1-609;1-732;1-4128;1-542, ||). The data set is described as follows: KU pull-down; TRF2 association with KU mediated by template DNA; Footprinting: 25 mM HEPES pH 7.6, 80 mM KCl, 1.5 mM CaCl2, 1.5 mM MgCl2, 5% glycerol, 50 ug/ml BSA, 2 mM DTT, ice then 37 C (EMSA same buffer, 37 C); pull-down: 20 mM HEPES pH 7.6, 80 mM KCl, 5% glycerol, 0.01% NP-40, 1 mM DTT, 30 C; cryo-EM: 40 mM HEPES pH 7.6, 100 mM NaCl, 3 mM MgCl2, 4 C. The note with it: protein: recombinant;native;recombinant; tags: FLAG (KU70 N-terminal);;dual strep; copies: 1;1;1;2; blunt.

The target of a further data set is KU70/80;DNA-PKcs (human;human, UniProt P12956;P13010;P78527 1-609;1-732;1-4128, |). Description: KU pull-down; DNA-PKcs associates with KU in a DNA-dependent manner; Footprinting: 25 mM HEPES pH 7.6, 80 mM KCl, 1.5 mM CaCl2, 1.5 mM MgCl2, 5% glycerol, 50 ug/ml BSA, 2 mM DTT, ice then 37 C (EMSA same buffer, 37 C); pull-down: 20 mM HEPES pH 7.6, 80 mM KCl, 5% glycerol, 0.01% NP-40, 1 mM DTT, 30 C; cryo-EM: 40 mM HEPES pH 7.6, 100 mM NaCl, 3 mM MgCl2, 4 C. The note with it: protein: recombinant;native; tags: FLAG (KU70 N-terminal);; copies: 1;1;1; blunt.

B1: PE3/PE4 telomeric duplex (dsDNA)
DNA 1: CGTCTATATTCTATTGTCTCTTAGGGTTAGGGTTAGGGTTAGGGTTAGGGTTAGGGTTAGGGTTAGGGTTAACATCAGTCTCACATAGATTAGCTCACGC
DNA 2: GCGTGAGCTAATCTATGTGAGACTGATGTTAACCCTAACCCTAACCCTAACCCTAACCCTAACCCTAACCCTAACCCTAAGAGACAATAGAATATAGACG
On to B1, for which the binding result in the data set with KU70/80;DNA-PKcs;TRF2 and in the data set with KU70/80;DNA-PKcs was “binds” each time.
